The record followed here is PMC7870652, “Single-molecule force spectroscopy reveals the dynamic strength of the hair-cell tip-link connection” (Nature Communications, 2021).

The target in experiment [1] is T1, single-bond CDH23 fusion protein (EC1-5/EC3-5 Fc heterodimer with one EC1-2 binding domain) (mouse, SNAPtag coupled to a benzylguanine DNA tether).
T1 construct: signal peptide in the construct (native; its cleavage on secretion was confirmed); cadherin-23, mouse, EC1-5; signal peptide in the construct (native, preserved by the deletion); cadherin-23, mouse, the EC1-5 construct (base pairs 408-2066 of NM_023370) from which amino acids 25-228 (EC1-2) were deleted, leaving EC3-5; 408-2066 is 1659 bp (553 codons), probably residues 1-553 of the precursor; …
Nature of the experiment: single-molecule force spectroscopy (dual-beam optical tweezers); each protein held on a streptavidin-coated silica bead through a DNA tether on its SNAPtag (R113G proteins and fast loading rates: biotinylated directly with BG-Biotin); room temperature, TBS-TB + Ca^2+ buffer (20 mM Tris, 125 mM NaCl, pH 7.4, 0.02% Tween-20, blocking reagent), 2 mM Ca^2+; loading rates 0.39-377.8 pN s^−1; constants from fits of the …. The settings on record: both partners purified.

The target in experiment [2] is T2, dimeric full-ectodomain CDH23 fusion protein (mouse, UniProt Q99PF4 24-3064, SNAPtag coupled to a benzylguanine DNA tether or BG-Biotin (force spectroscopy), or to a benzylguanine-PEG15-biotin linker (biolayer interferometry)).
T2 construct: cadherin-23, mouse, the entire extracellular domain up to the last hydrophilic amino acid before the transmembrane domain (27 EC domains); The two halves carry opposing Fc heterodimerisation domains and the same cadherin ectodomain; also called full-length dimer; CDH23 dimer; source: HEK Expi293 cells, co-transfected, secreted; purified (Ni-NTA or TALON, size-exclusion on Superose 6 Increase)
T2 sequence (Q99PF4 24-3064): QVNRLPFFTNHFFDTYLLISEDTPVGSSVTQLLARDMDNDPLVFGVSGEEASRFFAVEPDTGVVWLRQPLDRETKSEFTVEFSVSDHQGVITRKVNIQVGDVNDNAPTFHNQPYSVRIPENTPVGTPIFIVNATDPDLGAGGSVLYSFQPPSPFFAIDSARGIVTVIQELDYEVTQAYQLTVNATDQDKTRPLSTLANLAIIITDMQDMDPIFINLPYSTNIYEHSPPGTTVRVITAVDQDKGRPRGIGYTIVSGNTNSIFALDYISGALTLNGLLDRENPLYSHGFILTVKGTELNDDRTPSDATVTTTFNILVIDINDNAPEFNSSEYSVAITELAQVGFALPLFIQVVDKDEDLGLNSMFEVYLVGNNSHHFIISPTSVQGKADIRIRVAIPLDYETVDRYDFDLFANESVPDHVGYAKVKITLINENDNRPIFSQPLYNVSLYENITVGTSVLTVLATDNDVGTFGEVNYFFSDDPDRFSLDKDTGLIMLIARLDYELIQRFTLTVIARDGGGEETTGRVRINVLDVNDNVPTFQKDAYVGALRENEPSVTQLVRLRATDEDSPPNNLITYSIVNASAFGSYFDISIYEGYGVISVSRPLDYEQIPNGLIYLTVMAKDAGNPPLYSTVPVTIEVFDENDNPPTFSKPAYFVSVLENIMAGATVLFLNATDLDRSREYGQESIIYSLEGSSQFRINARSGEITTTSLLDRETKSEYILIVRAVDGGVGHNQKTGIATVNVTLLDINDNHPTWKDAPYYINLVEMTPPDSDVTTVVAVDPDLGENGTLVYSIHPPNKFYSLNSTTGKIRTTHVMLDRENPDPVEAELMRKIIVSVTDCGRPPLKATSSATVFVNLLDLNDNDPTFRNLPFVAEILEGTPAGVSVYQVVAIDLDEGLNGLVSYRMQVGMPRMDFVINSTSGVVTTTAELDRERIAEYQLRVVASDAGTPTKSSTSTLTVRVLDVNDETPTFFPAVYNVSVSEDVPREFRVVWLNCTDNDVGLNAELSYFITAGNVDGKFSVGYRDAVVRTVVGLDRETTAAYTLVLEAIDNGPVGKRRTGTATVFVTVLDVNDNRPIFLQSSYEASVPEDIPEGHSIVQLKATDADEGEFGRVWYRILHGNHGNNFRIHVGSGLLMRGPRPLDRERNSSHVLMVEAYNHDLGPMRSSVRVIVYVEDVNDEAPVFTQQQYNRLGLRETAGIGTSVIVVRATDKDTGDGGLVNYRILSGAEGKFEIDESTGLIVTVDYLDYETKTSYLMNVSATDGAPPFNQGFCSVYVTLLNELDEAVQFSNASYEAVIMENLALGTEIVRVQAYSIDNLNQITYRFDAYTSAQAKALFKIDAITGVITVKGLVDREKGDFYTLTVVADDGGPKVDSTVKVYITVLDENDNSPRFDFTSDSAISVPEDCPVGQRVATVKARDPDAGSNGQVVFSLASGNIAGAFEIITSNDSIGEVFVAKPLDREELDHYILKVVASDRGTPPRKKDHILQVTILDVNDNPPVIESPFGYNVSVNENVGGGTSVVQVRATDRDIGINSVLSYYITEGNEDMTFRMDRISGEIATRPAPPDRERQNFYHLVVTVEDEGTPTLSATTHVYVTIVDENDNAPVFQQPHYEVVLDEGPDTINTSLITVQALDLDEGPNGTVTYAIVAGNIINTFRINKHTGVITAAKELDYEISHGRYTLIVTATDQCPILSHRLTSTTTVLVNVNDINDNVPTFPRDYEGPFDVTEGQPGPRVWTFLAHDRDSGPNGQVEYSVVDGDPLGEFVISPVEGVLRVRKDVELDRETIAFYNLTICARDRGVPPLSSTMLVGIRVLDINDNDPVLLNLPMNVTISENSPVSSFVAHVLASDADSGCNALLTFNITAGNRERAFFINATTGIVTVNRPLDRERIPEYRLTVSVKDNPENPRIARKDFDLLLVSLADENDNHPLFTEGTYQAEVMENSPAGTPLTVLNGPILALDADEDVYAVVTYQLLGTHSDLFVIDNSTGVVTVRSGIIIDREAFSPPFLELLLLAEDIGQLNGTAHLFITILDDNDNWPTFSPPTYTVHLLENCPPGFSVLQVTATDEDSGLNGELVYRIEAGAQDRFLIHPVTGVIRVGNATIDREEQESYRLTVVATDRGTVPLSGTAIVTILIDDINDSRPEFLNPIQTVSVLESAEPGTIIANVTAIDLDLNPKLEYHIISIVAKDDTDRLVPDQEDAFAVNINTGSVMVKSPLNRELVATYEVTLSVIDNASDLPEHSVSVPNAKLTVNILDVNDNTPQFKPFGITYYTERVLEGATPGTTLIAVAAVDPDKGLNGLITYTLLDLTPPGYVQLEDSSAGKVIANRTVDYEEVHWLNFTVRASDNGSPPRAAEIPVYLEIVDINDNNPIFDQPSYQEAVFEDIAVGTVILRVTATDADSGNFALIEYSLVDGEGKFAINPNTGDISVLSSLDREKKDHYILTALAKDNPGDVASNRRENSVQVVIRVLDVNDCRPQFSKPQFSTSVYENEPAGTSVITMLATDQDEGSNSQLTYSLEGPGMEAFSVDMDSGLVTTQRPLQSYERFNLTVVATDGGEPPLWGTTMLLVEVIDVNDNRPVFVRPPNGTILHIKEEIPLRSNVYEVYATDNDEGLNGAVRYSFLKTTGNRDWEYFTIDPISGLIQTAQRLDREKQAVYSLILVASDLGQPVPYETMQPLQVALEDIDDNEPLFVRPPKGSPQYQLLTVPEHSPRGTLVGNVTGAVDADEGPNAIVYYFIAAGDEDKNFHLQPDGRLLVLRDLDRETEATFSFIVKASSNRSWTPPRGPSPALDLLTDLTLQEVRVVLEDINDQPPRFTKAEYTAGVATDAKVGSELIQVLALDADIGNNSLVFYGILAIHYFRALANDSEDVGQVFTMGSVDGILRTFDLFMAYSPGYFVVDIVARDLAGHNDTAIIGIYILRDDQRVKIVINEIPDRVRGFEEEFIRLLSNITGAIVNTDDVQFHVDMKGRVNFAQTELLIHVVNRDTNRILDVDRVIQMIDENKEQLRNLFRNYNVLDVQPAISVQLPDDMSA
Nature of the experiment: BLI; CDH23 biotinylated on its SNAPtag and immobilised on streptavidin-coated PEG-biotin aminopropylsilane sensors; 10–300 nM PCDH15 in solution; TBS-Tween + Ca^2+ buffer, 2 mM Ca^2+; traces of a drift sensor and of PCDH15 lacking EC1-2 subtracted; dissociation fitted with a single exponential; on-rates measured at 300 nM PCDH15 (effective on-rate); Octet Red384. The settings on record: both partners purified. For orientation: BLI is a label-free optical method that tracks binding on a fibre tip over time.

B1: single-bond PCDH15 fusion protein (EC1-5/EC3-5 Fc heterodimer with one EC1-2 binding domain) (Fc fusion)
chain 1: not shown
chain 2: QGDDLGPMFLPCVLVPNTRDCRPLTYQAAIPELRTPEELNPILVTPPIQAIDQDRNIQPPSDRPGILYSILVGTPEDYPRFFHMHPRTAELTLLEPVNRDFHQKFDLVIKAEQDNGHPLPAFASLHIEILDENNQSPYFTMPSYQGYILESAPVGATISESLNLTTPLRIVALDKDIEDTKDPELHLFLNDYTSVFTVTPTGITRYLTLLQPVDREEQQTYTFLITAFDGVQESEPVVVNIRVMDANDNTPTFPEISYDVYVYTDMSPGDSVIQLTAVDADEGSNGEISYEILVGGKGDFVINKTTGLVSIAPGVELIVGQTYALTVQASDNAPPAERRHSICTVYIEVLPPNNQ
modifications: SNAPtag coupled to a benzylguanine DNA tether
With B1, the off-rate constant (koff) in experiment [1] was found to be 0.5 ± 0.1 s⁻¹.

B2: dimeric full-ectodomain PCDH15 fusion protein (Fc fusion)
chain: not shown
modifications: SNAPtag coupled to a benzylguanine DNA tether, or to BG-Biotin in some force-spectroscopy conditions
notes: protocadherin-15, mouse, the entire extracellular domain up to the last hydrophilic amino acid before the transmembrane domain (11 EC domains); The two halves carry opposing Fc heterodimerisation domains and the same cadherin ectodomain; also called full-length dimer; full-ectodomain mouse PCDH15; source: HEK Expi293 cells, co-transfected, secreted; purified (Ni-NTA or TALON, size-exclusion on …)
For B2, the kon in experiment [2] worked out at 350000 M⁻¹ s⁻¹.

B3: dimeric full-ectodomain PCDH15 R113G^+/+ fusion protein (both strands mutated) (Fc fusion)
chain: not shown
modifications: SNAPtag coupled to BG-Biotin (force spectroscopy without the DNA tether)
notes: A human hereditary deafness mutation put into the mouse protein by site-directed mutagenesis; also called homozygous R113G^+/+; source: HEK Expi293 cells, co-transfected, secreted; purified (Ni-NTA or TALON, size-exclusion on Superose 6 Increase)
In the case of B3, the “mean lifetime of the connection at zero force” value in experiment [2] is 37 s.

A word on the koff: it is the first-order rate constant of dissociation. Broadly, the kon is a measure of how fast the partners come together.
